Entries after “also recorded” stand apart in the source; their conditions may differ.
Key:
plasma = assay: Prothrombin time; assay type: biochemical, human; settings: for anticoagulant activity, prothrombin time: human plasma, 37° C.; for anticoagulant activity in buffers of high ionic strength: 50 mM Tris-HCl (pH 7.4) with NaCl 35 mM to 150 mM
Method: Briefly, prothrombin times may be measured according to the method of Quick (see Quick A J. (1935) J. Biol. Chem. 109, 73-74). 100 μl of 50 mM of Tris-HCl buffer (pH 7.4), 100 μl of plasma and 50 μL of the protein under investigation are to be incubated for 2 min at 37° C. Clotting is initiated by the addition of 150 μL of thromboplastin with calcium reagent.
Anticoagulant activity—The anticoagulant activities of H. haemachatus venom and its fractions was determined by four coagulation tests using a BBL fibrometer: • 1. Recalcification time: The recalcification times were determined according to the method of Langdell et al. (25). 50 mM Tris-HCl buffer (pH 7.4) (100 μl), plasma (100 μl) and various concentrations of venom or its fraction (50 μl) were preincubated for 2 min at 37° C. Clotting was initiated by the addition of 50 μl of 50 mM CaCl2. • 2. Prothrombin time: The prothrombin times were measured according to the method of Quick (26). 100 μl of 50 mM Tris-HCl buffer (pH 7.4), 100 μl of plasma and 50 μl of venom or its fractions were preincubated for 2 min at 37° C. Clotting was initiated by the addition of thromboplastin with calcium reagent (150 μl) which can be purchased from Sigma (St. Louis, Mo., USA). • For studying the role of electrostatic interactions, the anticoagulant activity of a specific concentration of hemextin A (4.4 μM), hemextin B (4.4 μM) and hemextin AB complex (0.11 μM) was monitored in 50 mM Tris-HCl (pH 7.4) containing various concentrations of NaCl (35 mM to 150 mM). • For studying the role of hydrophobic interactions, the anticoagulant activity of a specific concentration of hemextin A (4.4 μM), hemextin B (4.4 μM) and hemextin AB complex (0.11 μM) was monitored in 50 mM Tris-HCl (pH 7.4) containing various concentrations of glycerol (125 mM to 250 mM). • 2. Stypven time: Stypven time measurements were determined according to the method of Hougie (27). Plasma (100 μl), 50 mM Tris-HCl buffer (pH 7.4) (100 μl) and RVV (0.01 μg in 100 μl) and individual proteins or the reconstituted complex (50 μl) were preincubated for 2 min at 37° C. Clotting was initiated by the addition of 50 mM CaCl2 (50 μl). • 3. Thrombin time: Thrombin time was determined according to the method of Jim (28). Individual proteins or the reconstituted complex were incubated with 100 μl of plasma and 100 μl of 50 mM Tris-HCl buffer (pH 7.4) for 2 min at 37° C. in a total volume 250 μl. Clotting was initiated by the addition of standard thrombin reagent (0.01 NIH units in 50 μl).

Factor IXa = Factor IXa (Homo sapiens, UniProt P00740); assay: Serine protease specificity, FIXa; assay type: biochemical; settings: FIXa (3 μM)/Spectrozyme fIXa
Method: (§1) Serine protease specificity—The selectivity profile of anticoagulant proteins and their complex was examined against 12 serine proteases—procoagulant serine proteases (FIXa, FXa, FXIa, FXIIa, plasma kallikrein and thrombin), anticoagulant serine protease (APC), fibrinolytic serine proteases (urokinase, t-PA and plasmin) and classical serine proteases (trypsin and chymotrypsin). Various concentrations of purified hemextin A/hemextin B and reconstituted hemextin AB complex were preincubated with each of the enzymes (Table 1) for a period of five minutes at a temperature of 37° C., followed by the addition of appropriate chromogenic substrate.
(§2) For studies with FXIa, kallikrein and urokinase, the appropriate substrates were determined prior to their screening against the inhibitors. For FXIa, the Vmax for the amidolytic activity corresponding to the chromogenic substrates S-2266, S-2302 and S-2366 was determined. S-2302 was the substrate with the highest Vmax and thus was used in the screening studies. Similar studies with kallikrein and urokinase were carried out with substrates S-2266, S-2302 and S-2288 for kallikrein and S-2444 and S-2484 for urokinase. In a total volume of 200 μl in the individual wells of the microtiter plate, final concentrations of FVIIa (300 nM)/S-2288, FVIIa-sTF (30 nM)/S-2288, FXa (0.75 nM)/S-2765, α-thrombin (0.66 nM)/S-2238, plasmin (2 nM)/S-2366, FIXa (3 μM)/spectrozyme®fIXa, FXIa (0.34 nM)/S-2366, FXIIa (0.4 nM)/S-2302, recombinant tissue plasminogen activator (80 nM)/S-2288, activated protein C (0.34 nM)/S-2366, urokinase/S-2444, plasma kallikrein (0.4 nM)/S-2302, trypsin (2.17 nM)/S-2222 and chymotrypsin (0.4 nM)/S-2586 were measured. The kinetic rate of substrate hydrolysis (mOD/min) was measured over 5 min.

Plasma Kallikrein = Plasma Kallikrein (Homo sapiens, UniProt P03952); assay: Serine protease specificity, plasma kallikrein; assay type: biochemical; settings: for Observed Effect, plasma kallikrein amidolytic activity: plasma kallikrein (0.4 nM)/S-2302; for inhibitory potency towards FVIIa versus plasma kallikrein: FVIIa in the absence or presence of sTF
Sequence of Plasma Kallikrein (P03952 391-638 limits assumed, species assumed): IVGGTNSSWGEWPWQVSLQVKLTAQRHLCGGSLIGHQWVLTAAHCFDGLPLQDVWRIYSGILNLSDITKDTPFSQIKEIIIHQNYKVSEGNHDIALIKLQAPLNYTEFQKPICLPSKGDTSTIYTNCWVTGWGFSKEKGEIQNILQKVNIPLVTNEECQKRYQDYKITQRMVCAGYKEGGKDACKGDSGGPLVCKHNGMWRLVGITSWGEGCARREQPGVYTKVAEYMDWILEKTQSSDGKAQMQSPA
Sequence of Plasma Kallikrein (P03952 20-390 limits assumed, species assumed): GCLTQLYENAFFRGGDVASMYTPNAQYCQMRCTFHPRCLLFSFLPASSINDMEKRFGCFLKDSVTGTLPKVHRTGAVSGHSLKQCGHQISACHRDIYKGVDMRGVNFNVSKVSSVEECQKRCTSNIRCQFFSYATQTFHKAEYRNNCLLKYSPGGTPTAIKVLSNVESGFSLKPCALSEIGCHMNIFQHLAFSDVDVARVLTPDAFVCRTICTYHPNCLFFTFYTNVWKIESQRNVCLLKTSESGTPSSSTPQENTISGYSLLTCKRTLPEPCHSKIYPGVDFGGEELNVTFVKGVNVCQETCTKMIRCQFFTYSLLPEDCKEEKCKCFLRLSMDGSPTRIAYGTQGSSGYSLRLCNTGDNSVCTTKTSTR
Method: as §1, §2

Urokinase = Urokinase (Homo sapiens, UniProt P00749); assay: Serine protease specificity, urokinase; assay type: biochemical; settings: urokinase/S-2444
Method: as §1, §2

[1] = Molecular diameter by GEMMA; assay type: physicochemical; settings: gas phase, 20 mM ammonium acetate (pH 7.4)
Method: (A) Gas Phase Electrophoretic Mobility Macromolecule Analyzer (GEMMA)—The molecular diameters in the gas phase were determined with GEMMA (71, 72) using a nano-differential mobility analyzer, model 3980 (TSI, St Paul, Minn., USA), and a standard CPC type 3025 (TSI, St Paul, Minn., USA). The instrument was operated in the ‘cone jet’ mode with an operating voltage between 2.5 and 3.0 kV, resulting in currents from 200 to 300 nA. Filtered ambient air at 2 l/min and a concentric sheath gas flow of filtered CO2 at 0.1/min was used to stabilize the electrospray against corona discharge. Sample solutions of hemextin A (4 ng/ml) and hemextin B (4 ng/ml) were prepared in 20 mM ammonium acetate (pH 7.4) immediately prior to the experiment. Hemextin AB complex (4.5 ng/ml) was reconstituted in the above buffer and was incubated at 37° C. for 10 min. Another three-finger protein, toxin C isolated and purified from the same venom was used as a control in the GEMMA experiments. The samples were infused into the electrospray chamber with an inlet flow rate of 100 nl/min. Twenty scans over the whole EM diameter range (0 to 25 nm) were recorded and averaged to obtain a GEMMA spectrum. No smoothing algorithm was applied for the data presentation.

Molecule | anticoagulant activity of hemextin A with increasing hemextin B concentrations (plasma; hemextin A constant at 4.4 μM) | anticoagulant activity, prothrombin time (plasma) | Observed Effect, Factor IXa amidolytic activity (Factor IXa) | Observed Effect, plasma kallikrein amidolytic activity (Plasma Kallikrein) | Observed Effect, urokinase amidolytic activity (Urokinase) | apparent molecular diameter (GEMMA) [1] | anticoagulant activity in buffers of high ionic strength (plasma) | inhibitory potency towards FVIIa versus plasma kallikrein (Plasma Kallikrein) | anticoagulant activity in buffers containing glycerol (plasma; 50 mM Tris-HCl (pH 7.4) with glycerol 125 mM to 250 mM) | anticoagulant activity at 125 mM glycerol (plasma; 125 mM glycerol) | anticoagulant activity at 250 mM glycerol (plasma; 250 mM glycerol) | anticoagulant activity, prothrombin time (plasma; listed as equimolar mixture of hemextin A and B)
hemextin B (protein) LKCKNKVVPFLKCKNKVVPFLCYKMTLKKVPKIPIKRGCTDACPKSSLLVNVMCCKTDKCN | increases with the increasing concentrations of hemextin B until the ratio reaches 1:1 | did not show any significant effect on clotting time; also recorded: did not prolong clotting times; also recorded: no anticoagulant activity | no inhibitory activity | did not inhibit | no inhibitory activity | 8.82±0.42 nm |  |  |  |  |  | 
hemextin A (protein) LKCKNKLVPFLSKTCPEGKNLCYKMTMLKMPKIPIKRGCTDACPKSSLLVKVVCCNKDKCN |  | mild anticoagulant activity | no inhibitory activity | inhibit plasma kallikrein in a dose-dependant manner; also recorded: inhibit the amidolytic activity of plasma kallikrein | no inhibitory activity | 10.2±0.38 nm | did not affect the anticoagulant activity | at least 50 times |  |  |  | 
hemextin AB complex: synergistic 1:1 tetrameric complex of hemextin A and hemextin B, reconstituted from equimolar proteins (protein) chain 1: LKCKNKLVPFLSKTCPEGKNLCYKMTMLKMPKIPIKRGCTDACPKSSLLVKVVCCNKDKCN chain 2: LKCKNKVVPFLKCKNKVVPFLCYKMTLKKVPKIPIKRGCTDACPKSSLLVNVMCCKTDKCN |  | potent anticoagulant activity | no inhibitory activity | inhibit plasma kallikrein in a dose-dependant manner; also recorded: inhibit the amidolytic activity of plasma kallikrein | no inhibitory activity | 16.3±0.43 nm | decreased with the increase in ionic strength up to 100 mM NaCl | at least 50 times | decreased with the increase in glycerol concentration | no decrease in the anticoagulant activity | higher than that of anticoagulant effect of hemextin A alone | more potent anticoagulant activity
